From paper PMC5053906
Blank lines part the entries; values can stand above or below the substance they belong to.

Experiments:
[1] = target: full length HA-mGluR2 (rat) (UniProt P31421); experiment: co-IP
[2] = target: chimera with the ECD of mGluR1 and the TMD (and C-terminal) of mGluR2 (rat); experiment: single molecule subunit counting
[3] = target: chimera with the ECD of mGluR1 and the TMD (and C-terminal) of mGluR2 (rat); experiment: single molecule pull-down
[4] = target: chimera with the ECD of mGluR2 and the TMD (and C-terminal) of mGluR1 (rat); experiment: single molecule subunit counting
[5] = target: chimera with the ECD of mGluR2 and the TMD (and C-terminal) of mGluR1 (rat); experiment: single molecule pull-down
[6] = target: mGluR2-GFP truncated by removing the entire extracellular domain (rat); experiment: single molecule pull-down

Sequence of mGluR2-GFP truncated by removing the entire extracellular domain (domain or fragment) (P31421 19-872): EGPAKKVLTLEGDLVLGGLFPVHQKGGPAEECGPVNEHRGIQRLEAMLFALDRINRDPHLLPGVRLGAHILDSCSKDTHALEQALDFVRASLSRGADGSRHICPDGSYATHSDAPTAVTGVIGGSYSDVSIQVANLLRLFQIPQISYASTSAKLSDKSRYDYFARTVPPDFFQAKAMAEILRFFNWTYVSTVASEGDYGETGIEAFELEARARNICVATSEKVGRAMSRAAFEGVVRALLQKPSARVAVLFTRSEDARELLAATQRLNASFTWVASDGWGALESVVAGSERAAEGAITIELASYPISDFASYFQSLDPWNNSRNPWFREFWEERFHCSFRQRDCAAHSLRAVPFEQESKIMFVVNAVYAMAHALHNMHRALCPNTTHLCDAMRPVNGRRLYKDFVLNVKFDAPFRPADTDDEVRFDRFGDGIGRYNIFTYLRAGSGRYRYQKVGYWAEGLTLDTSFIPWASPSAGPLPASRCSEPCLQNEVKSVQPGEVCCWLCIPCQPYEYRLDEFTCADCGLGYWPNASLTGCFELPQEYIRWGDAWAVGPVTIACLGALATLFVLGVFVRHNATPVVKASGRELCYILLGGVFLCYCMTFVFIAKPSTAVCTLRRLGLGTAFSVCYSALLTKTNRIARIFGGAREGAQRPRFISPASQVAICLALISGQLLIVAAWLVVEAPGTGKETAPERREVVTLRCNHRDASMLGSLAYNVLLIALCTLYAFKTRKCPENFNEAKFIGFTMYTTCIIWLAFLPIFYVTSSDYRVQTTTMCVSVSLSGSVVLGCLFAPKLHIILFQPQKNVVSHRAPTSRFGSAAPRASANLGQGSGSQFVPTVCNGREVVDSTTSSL
Sequence of full length HA-mGluR2 (rat) (P31421 19-872): as above
Sequence of GFP-tagged isolated ligand binding domain of mGluR2 (domain or fragment) (P31421 19-872): as above

percent of spots bleaching in a single step [1]: 92.4%
Substance: GFP-tagged isolated ligand binding domain of mGluR2 (domain or fragment)

stoichiometry N [2]: 2 | stoichiometry N [3]: 2
Substance: chimera with the ECD of mGluR1 and the TMD (and C-terminal) of mGluR2 (receptor)

stoichiometry N [4]: 2 | stoichiometry N [5]: 2
Substance: chimera with the ECD of mGluR2 and the TMD (and C-terminal) of mGluR1 (receptor)

percent of spots bleaching in a single step [1]: 89.6% | percent of spots bleaching in two steps [6]: 30%
Substance: mGluR2-GFP truncated by removing the entire extracellular domain (domain or fragment)
